Experimental data: PMC13031973 (Nature Communications, 2026)

Columns and labels:
[1] = molecular target: T1, purified proteasome subunit RPN1 (PSMD2) (human, UniProt Q13200 1-908); assay: SPR
[2] = molecular target: T1, purified proteasome subunit RPN1 (PSMD2); assay: ITC

T1 sequence (Q13200 whole entry): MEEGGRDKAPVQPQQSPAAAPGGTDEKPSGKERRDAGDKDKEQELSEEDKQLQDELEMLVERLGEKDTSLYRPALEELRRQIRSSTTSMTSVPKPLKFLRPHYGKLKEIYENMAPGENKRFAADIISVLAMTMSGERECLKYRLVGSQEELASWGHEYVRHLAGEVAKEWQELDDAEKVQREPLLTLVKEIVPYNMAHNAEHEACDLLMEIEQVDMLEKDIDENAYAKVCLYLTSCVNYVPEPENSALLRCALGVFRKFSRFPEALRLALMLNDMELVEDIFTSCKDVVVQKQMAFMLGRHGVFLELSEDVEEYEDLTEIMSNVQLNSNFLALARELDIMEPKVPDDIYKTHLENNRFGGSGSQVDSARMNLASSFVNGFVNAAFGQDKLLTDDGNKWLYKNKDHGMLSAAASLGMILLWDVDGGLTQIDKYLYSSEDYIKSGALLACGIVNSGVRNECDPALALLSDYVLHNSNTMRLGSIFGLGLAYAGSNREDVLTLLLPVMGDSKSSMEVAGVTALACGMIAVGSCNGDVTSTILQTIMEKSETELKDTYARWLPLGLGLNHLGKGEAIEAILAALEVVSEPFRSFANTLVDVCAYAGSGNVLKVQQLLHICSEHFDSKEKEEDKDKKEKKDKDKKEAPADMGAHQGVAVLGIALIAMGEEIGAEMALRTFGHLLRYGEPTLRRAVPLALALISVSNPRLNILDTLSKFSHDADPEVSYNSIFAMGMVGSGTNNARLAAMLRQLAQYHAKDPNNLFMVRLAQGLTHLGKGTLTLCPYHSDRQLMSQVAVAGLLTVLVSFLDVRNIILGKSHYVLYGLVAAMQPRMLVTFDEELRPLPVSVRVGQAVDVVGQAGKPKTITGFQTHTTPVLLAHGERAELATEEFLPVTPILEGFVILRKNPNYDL

B1: MIDN(337-432) (domain or fragment)
chain: SPASPAPDLAPRTTSCEKLTAAPSASLLQGQSQIRMCKPPGDRLRQTENRATRCKVERLQLLLQQKRLRRKARRDARGPYHWSPSRKAGRSDSSSS
Kd [1]: 663 nM
Kd [2]: ~146 nM

B2: MIDN(337-468) (domain or fragment)
chain: SPASPAPDLAPRTTSCEKLTAAPSASLLQGQSQIRMCKPPGDRLRQTENRATRCKVERLQLLLQQKRLRRKARRDARGPYHWSPSRKAGRSDSSSSGGGGSPSEASGLGLDFEDSVWKPEVNPDIKSEFVVA
Kd [1]: 390 nM
Kd [2]: ~130 nM
